Article PMC5148588

Molecular target: peptide containing the sequence LAETG

B1: SrtE1^ΔN, extracellular domain of sortase E1 from Streptomyces coelicolor (residues T162-S352), Q9XA14 162-352 (enzyme)
chain: TNVRAHAQANQAASNLQDDWANGKRSPGSFEPGQGFALLHIPKLDVVVPIAEGISSKKVLDRGMVGHYAEDGLKTAMPDAKAGNFGLAGHRNTHGEPFRYINKLEPGDPIVVETQDKYFVYKMASILPVTSPSNVSVLDPVPKQSGFKGPGRYITLTTCTPEFTSKYRMIVWGKMVEERPRSKGKPDALVS
Work on B1 yielded a hydrolysis of the peptide at the T-G bond, in vitro HPLC assay (area of the N-terminal product peak); preference against the LPETG peptide of 2 fold.
